From article PMC7508878
Several values for one entry are separate records, joined by “and”; a condition that tells them apart may be missing. Identical values can stand only once.

How the values were obtained:
[1] = molecular target: Tri1 protein of the varicella-zoster virus heterotriplex (varicella-zoster virus (strain vOka)); experiment: cryo-EM structure; VZV A-capsids purified from infected MRC-5 cells, in 1x PBS; single-particle reconstruction with block-based (localized) reconstruction of an asymmetric unit, 3.7 Å
[2] = molecular target: major capsid protein (MCP) of varicella-zoster virus (varicella-zoster virus (strain vOka)) (UniProt P09245); experiment: as above

With “Tri2 protein of the varicella-zoster virus heterotriplex (natural protein)” the stoichiometry N (Tri2 per Tri1) [1] was 2.
“major capsid protein (MCP) of varicella-zoster virus (from UniProt P09245 1-1396) (natural protein)” was tested, and the stoichiometry N [2] was 5 and 6.
